Measurements reported in patent US20240043505A1 (UNIVERSITY OF PITTSBURGH OF THE COMMONWEALTH SYSTEM OF …, published 2024).
Several values for one entry are separate records, joined by “and”; a condition that tells them apart may be missing. Equal values may be shown once.

B1: Nb95 (VHH)
VHH: QVQLVESGGGLVQAGGSLRLSCAASGRTFSSYSMGWFRQAQGKEREFVATINGNGRDTYYTNSVKGRFTISRDDATNTVYLQMNSLKPEDTAIYYCAADKDVYYGYTSFPNEYEYWGQGTQVTVSS
B2: Nb95 (VHH)
VHH: B1 VHH
B3: Nb21 (VHH)
VHH: QVQLVESGGGLVQAGGSLRLSCAVSGLGAHRVGWFRRAPGKEREFVAAIGANGGNTNYLDSVKGRFTISRDNAKNTIYLQMNSLKPQDTAVYYCAARDIETAEYTYWGQGTQVTVSS
B4: Nb89 (VHH)
VHH: HVQLVESGGGLVQAGGSLRLSCAASGGTFTTFRMAWFRQTPGKEREFVAASSWGFVNYADPVKGRFTISRDNAKNTVYLEMSSLKTEDTAVYYCAARNPGTGQYDYWGQGTQVTVSS
B5: Nb89 (VHH)
VHH: B4 VHH
B6: Nb105 (VHH)
VHH: HVQLVESGGGLVQAGGSLRLSCAVSGRTFSTYGMAWFRQAPGKERDFVATITRSGETTLYADSVKGRFTISRDNAKNTVYLQMNSLKIEDTAVYYCAVRRDSSWGYSRDLFEYDYWGQGTQVTVSS

Tests used:
[1] = biological target: SARS-CoV-2 spike glycoprotein on authentic SARS-CoV-2 (Munich strain, SARS-CoV-2/München-1.1/2020/929) (SARS-CoV-2, UniProt P0DTC2 14-1273); assay: cell-based or functional assay
[2] = biological target: SARS-CoV-2 spike glycoprotein on pseudotyped SARS-CoV-2 (Wuhan-Hu-1 strain) particles (SARS-CoV-2, UniProt P0DTC2 14-1273); assay: cell-based or functional assay
[3] = biological target: T1, SARS-CoV-2 (Wuhan-Hu-1 strain) spike glycoprotein on pseudotyped virus particles (SARS-CoV-2, UniProt P0DTC2 14-1273); assay: cell-based or functional assay
SARS-CoV RBD = SARS-CoV RBD (SARS-CoV, UniProt P59594 306-527)
[4] = biological target: T1, SARS-CoV-2 (Wuhan-Hu-1 strain) spike …; assay: cell-based or functional assay; remark: listed apart in the source
[5] = biological target: T2, SARS-CoV-2 Munich strain spike glycoprotein on authentic virus (SARS-CoV-2); assay: cell-based or functional assay
[6] = biological target: T2, SARS-CoV-2 Munich strain spike …; assay: cell-based or functional assay; remark: listed apart in the source
[7] = biological target: SARS-CoV-2 spike receptor-binding domain (RBD), recombinant (SARS-CoV-2, UniProt P0DTC2 319-541); assay: SPR (Biacore 3000), RBD immobilized on the chip, Nb as analyte, 1:1 Langmuir fit
[8] = biological target: T3, SARS-CoV-2 spike receptor-binding domain (RBD) (SARS-CoV-2, UniProt P0DTC2 319-541); assay: indirect ELISA, RBD coated on plate, 4PL fit
[9] = biological target: T3, SARS-CoV-2 spike receptor-binding …; assay: SPR (Biacore 3000), RBD immobilised, Nb as analyte, 1:1 Langmuir fit

Binder	Authentic virus PRNT IC50 [1]	Pseudo-neutralization IC50 (Luciferase) [2]	neutralization of SARS-CoV-2 (assay not stated) [3]	IC50 (SARS-CoV RBD)	Pseudo-neut IC50 Luciferase [4]	Authentic virus PRNT IC50 [5]	other results
B1	5.11 nM	10 nM					
B2			< 150 ng/mL	31.6 nM	10 nM	5.11 nM	
B3					0.0495 nM	0.022 nM	IC50, pseudovirus assay [3]: 0.7 ng/ml and 0.045 nM; IC50, SARS-CoV-2 PRNT [6]: 0.021 nM; Pseudo-neutralization (GFP) [4]: < 0.5 nM
B4	0.154 nM	0.129 nM					Pseudo-neutralization (GFP) [2]: < 0.5 nM; Kd [7]: 0.108 nM; koff [7]: 0.000624 s⁻¹
B5							ELISA affinity [8]: 1.09 nM; kon [9]: 5.78e+06 M⁻¹ s⁻¹
B6			< 150 ng/mL	3.76 nM	5.11 nM	5.07 nM	
